Data from patent US5739291, “Glutamate receptor antibodies” (The Salk Institute For Biological Studies, dated 1998).

Molecular target: glutamate receptor subunit GluR2 (rat)
Experiment: cell-based or functional assay

glutamate receptor subunit GluR2 (rat), sequence (chain, as listed by the source limits assumed): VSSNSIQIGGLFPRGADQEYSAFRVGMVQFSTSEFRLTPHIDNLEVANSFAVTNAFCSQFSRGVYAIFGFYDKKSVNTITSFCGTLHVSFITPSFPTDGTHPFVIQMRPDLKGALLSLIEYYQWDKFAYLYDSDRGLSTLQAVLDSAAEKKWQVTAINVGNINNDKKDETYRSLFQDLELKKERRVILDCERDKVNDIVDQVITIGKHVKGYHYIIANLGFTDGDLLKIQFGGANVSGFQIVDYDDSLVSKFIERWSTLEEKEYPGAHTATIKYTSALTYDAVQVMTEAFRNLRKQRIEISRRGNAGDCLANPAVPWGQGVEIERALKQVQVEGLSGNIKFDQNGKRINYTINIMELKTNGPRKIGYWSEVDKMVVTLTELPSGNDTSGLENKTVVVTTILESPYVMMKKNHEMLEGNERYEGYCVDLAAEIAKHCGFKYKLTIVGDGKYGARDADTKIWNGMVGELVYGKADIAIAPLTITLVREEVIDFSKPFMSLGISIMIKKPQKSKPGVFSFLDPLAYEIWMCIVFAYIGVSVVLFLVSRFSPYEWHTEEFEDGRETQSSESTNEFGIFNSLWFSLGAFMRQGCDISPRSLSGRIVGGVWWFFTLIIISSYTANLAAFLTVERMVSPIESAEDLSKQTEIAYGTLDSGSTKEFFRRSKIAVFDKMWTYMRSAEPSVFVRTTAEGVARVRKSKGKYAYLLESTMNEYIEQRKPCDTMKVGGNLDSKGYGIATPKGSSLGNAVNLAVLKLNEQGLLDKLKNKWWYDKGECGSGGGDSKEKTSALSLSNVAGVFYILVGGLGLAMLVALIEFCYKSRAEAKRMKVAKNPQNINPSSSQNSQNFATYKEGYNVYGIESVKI

B1: glutamate receptor subunit GluR1 (receptor)
chain: ANFPNNIQIGGLFPNQQSQEHAAFRFALSQLTEPPKLLPQIDIVNISDTFEMTYRFCSQFSKGVYAIFGFYERRTVNMLTSFCGALHVCFITPSFPVDTSNQFVLQLRPELQEALISIIDHYKWQTFVYIYDADRGLSVLQRVLDTAAEKNWQVTAVNILTTTEEGYRMLFQDLEKKKERLVVVDCESERLNAILGQIVKLEKNGIGYHYILANLGFMDIDLNKFKESGRNVTGFQLVNYTDTIPARIMQQWRTSDSRDHTRVDWKRPKYTSALTYDGVKVMAEAFQSLRRQRIDISRRGNAGDCLANPAVPWGQGIDIQRALQQVRFEGLTGNVQFNEKGRRTNYTLHVIEMKHDGIRKIGYWNEDDKFVPAATDAQAGGDNSSVQNRTYIVTTILEDPYVMLKKNANQFEGNDRYEGYCVELAAEIAKHVGYSYRLEIVSDGKYGARDPDTKAWNGMVGELVYGRADVAVAPLTITLVREEVIDFSKPFMSLGISIMIKKPQKSKPGVFSFLDPLAYEIWMCIVFAYIGVSVVLFLVSRFSPYEWHSEEFEEGRDQTTSDQSNEFGIFNSLWFSLGAFMQQGCDISPRSLSGRIVGGVWWFFTLIIISSYTANLAAFLTVERMVSPIESAEDLAKQTEIAYGTLEAGSTKEFFRRSKIAVFEKMWTYMKSAEPSVFVRTTEEGMIRVRKSKGKYAYLLESTMNEYIEQRKPCDTMKVGGNLDSKGYGIATPKGSALRNPVNLAVLKLNEQGLLDKLKNKWWYDKGECGTGGGDSKDKTSALSLSNVAGVFYILIGGLGLAMLVALIEFCYKSRSESKRMKGFCLIPQQSINEAIRTSTLPRNSGAGASGGGGSGENGRVVSQDFPKSMQSIPCMSHSSGMPLGATGL
In the case of B1, the “KA-evoked currents in Xenopus oocytes on co-expression, against the summed responses of singly injected oocytes” value is reported as ~4 fold.
